Source: US8603987 (GALAXY BIOTECH, dated 2013)

Experiments:
[1] = molecular target: T1, FGFR2IIIb(S252W) on transfected human 293F cells (UniProt P21802-3 22-822); assay: flow cytometry on 293F cells transfected with FGFR2IIIb(S252W)
T1 construct: whole, on cells
Method: (§1) Flow cytometry. After washing twice in cell sorting buffer (CSB: PBS/1% FBS/0.02% NaN_3), 2×10^5 cells were resuspended in 50 µl of CSB in a microtiter well and incubated with 50 µl of the anti-FGFR2 mAb to be tested (1 µg/50 µl) for 1 hr on ice. Cells were then washed twice in CSB and the bound antibodies detected by incubation with FITC-goat anti-mouse IgG (Jackson ImmunoResearch Laboratories) for 1 hr on ice. After washing twice in CSB, cells were analyzed on a FACScan (Becton Dickinson).
(§2) To confirm that the selected mAbs bind to the appropriate forms of FGFR2 on the cell membrane, flow cytometry was employed. KATO-III (ATCC HTB-103) and SNU-16 (ATCC CRL-5974) cells, which overexpress FGFR2IIIb, were used to test binding to that form of the receptor. […] Human 293F cells transfected with a gene for FGFRIIIc were used to test binding to that form, after verifying that none of the mAbs bind to the host 293F cells themselves. […] Finally, since the S252W mutation of FGFR2 is found in some cancer cells, binding of the mAbs to 293F cells transfected with an FGFR2IIIb gene constructed to contain that mutation (FGFR2IIIb(S252W)) was tested. As also seen in FIG. 7, all the mAbs bound to the FGFR2IIIb(S252W)-transfected cells. The ability to bind FGFR2IIIb(S252W) is a preferred property of mAbs of the invention.

[2] = molecular target: T2, Chimpanzee FGFR2IIIb-Fc (human FGFR2IIIb ECD with residue 186 methionine to threonine, fused to human Fc) (chimpanzee; human, UniProt P21802-3 22-378); assay: ELISA, FGFR2IIIb-Fc captured by anti-human IgG-Fc
T2 construct: range 1-378; Built from the human FGFR2IIIb-Fc construct; also called chimp FGFR2IIIb; not shown: human Fc, residues 216 to 446
Method: (§3) To determine the ability of the mAbs to bind to FGFR2 from species other than human, ELISA assays were used. ELISA wells were coated with 2 µg/ml of goat anti-human IgG-Fc overnight at 4° C. After blocking with 2% BSA for 1 hr at RT, the wells were incubated with 0.2 µg/ml of FGFR2IIIb-Fc for 1 hr, where the FGFRIIIb in the fusion protein was either human, mouse, cynomolgus monkey or chimpanzee FGFRIIIb. The wells were then incubated with various concentrations of GAL-FR21 or GAL-FR22 mAb. The bound mAbs were detected by addition of HRP-conjugated goat anti-mouse IgG-Fc and then TMB substrate. […] A similar experiment with chimpanzee FGFR2 gave the same results as with cynomolgus monkey FGFR2: GAL-FR21 bound to chimpanzee FGFR2 as well as (indistinguishably from) human FGFR2, while GAL-FR22 bound to chimpanzee FGFR2 moderately well (within about 100-fold of human FGFR2). […] Binding to FGFR2 from such other species makes testing of the mAbs in those animal species easier to conduct.

[3] = molecular target: T3, human FGFR2IIIb-Fc (alpha form, entire ECD amino acids 1-378 fused to human Fc) (human, UniProt P21802-3 22-378); assay: ELISA, FGFR2IIIb-Fc captured by anti-human IgG-Fc
T3 construct: range 1-378; Secreted from 293F cells and purified on protein A/G; not shown: human Fc, residues 216 to 446
Method: as §3

[4] = molecular target: T4, human FGFR2(beta)IIIb-Fc (amino acids 152-378, missing D1, fused to human Fc) (human, UniProt P21802-3 152-378); assay: ELISA on the four FGFR2-Fc forms, fixed mAb concentration
T4 construct: range 152-378; The signal peptide used for secretion of the beta form is not described; also called beta form of FGFR2IIIb; not shown: human Fc, residues 216 to 446
Method: ELISA assay for mAb binding to FGFR2 fusion protein. ELISA plates were coated with goat anti-human IgG-Fc (2 µg/ml) overnight at 4° C. Then nonspecific binding sites were blocked with 2% BSA for 1 hr at RT. Plates were incubated with one of the FGFR2 fusion proteins described above (1 µg/ml) for 1 hr, followed by incubation with various concentrations of mAbs or hybridoma culture fluids for 1 hr. The bound mAb was detected with HRP-Goat anti-mouse antibody followed by washing, addition of TMB substrate (Sigma) and reading at 450 nm. In all ELISA assays, plates were washed 3 times between each step.
Figure 3: FIG. 3. Binding ELISA of mAbs GAL-FR21, GAL-FR22 and GAL-FR23 and negative control mIgG to FGFR2IIIb. Figure 4: FIG. 4. Binding ELISA of mAbs GAL-FR21, GAL-FR22 and GAL-FR23 and negative control mouse mAb 5G8 to each of the four forms of FGFR2—FGFR2IIIb, FGFR2(beta)IIIb, FGFR2(IIIc) and FGFR2(beta)IIIc—as fusion proteins with Fc. A fixed concentration of each mAb was used in the assay.

[5] = molecular target: T5, FGFR2IIIc on transfected human 293F cells (UniProt P21802 22-821); assay: flow cytometry on 293F cells transfected with FGFRIIIc
T5 construct: whole, on cells; also called FGFRIIIc
Method: as §1, §2

[6] = molecular target: T6, FGFR2IIIb on KATO-III and SNU-16 human gastric tumor cells (human, UniProt P21802-3 22-822); assay: flow cytometry on KATO-III and SNU-16 cells overexpressing FGFR2IIIb
T6 construct: whole, on cells; Endogenous receptor of human tumor cell lines; also called FGFR2IIIb on the cell membrane
Method: as §1, §2

[7] = molecular target: T3, human FGFR2IIIb-Fc (alpha form, entire …); assay: estimate from the 50% inhibition point of the competition ELISA on FGFR2IIIb-Fc against biotinylated GAL-FR21
Method: To compare the binding affinity of HuGAL-FR21 with that of the mouse mAb GAL-FR21, a competitive binding experiment was performed using standard ELISA technology. Specifically, ELISA wells were coated with 2 μg/ml of goat anti-human IgG-Fc overnight at 4° C. After blocking with 2% BSA for 1 hr at RT, the wells were incubated with 0.5 μg/ml of FGFR2IIIb-Fc. The wells were then incubated with biotinylated GAL-FR21 mAb (0.05 μg/ml) in the presence of increasing concentrations of unlabeled GAL-FR21, HuGAL-FR21 or control human antibody hIgG. The level of biotinylated GAL-FR21 bound was determined by the addition of HRP-streptavidin and substrate. […] HuGAL-FR21 may also be tested in any of the biological assays for FGFR2 activity described herein, e.g., inhibition of binding of FGF2 or FGF7 to FGFR2, and will inhibit FGFR2 activity comparably to GAL-FR21.

T3 sequence (P21802 other isoform, or with tags, fused parts or gaps): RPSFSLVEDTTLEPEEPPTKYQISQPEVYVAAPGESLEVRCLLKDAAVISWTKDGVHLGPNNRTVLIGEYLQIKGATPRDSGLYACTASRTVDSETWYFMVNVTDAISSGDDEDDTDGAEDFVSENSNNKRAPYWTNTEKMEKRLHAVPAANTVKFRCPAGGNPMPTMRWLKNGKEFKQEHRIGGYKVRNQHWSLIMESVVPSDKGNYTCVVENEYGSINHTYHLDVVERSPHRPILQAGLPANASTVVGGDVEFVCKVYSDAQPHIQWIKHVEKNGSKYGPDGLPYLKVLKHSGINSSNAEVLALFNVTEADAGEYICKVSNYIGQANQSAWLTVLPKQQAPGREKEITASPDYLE
T1 sequence (P21802 other isoform, or with tags, fused parts or gaps S252W S252W): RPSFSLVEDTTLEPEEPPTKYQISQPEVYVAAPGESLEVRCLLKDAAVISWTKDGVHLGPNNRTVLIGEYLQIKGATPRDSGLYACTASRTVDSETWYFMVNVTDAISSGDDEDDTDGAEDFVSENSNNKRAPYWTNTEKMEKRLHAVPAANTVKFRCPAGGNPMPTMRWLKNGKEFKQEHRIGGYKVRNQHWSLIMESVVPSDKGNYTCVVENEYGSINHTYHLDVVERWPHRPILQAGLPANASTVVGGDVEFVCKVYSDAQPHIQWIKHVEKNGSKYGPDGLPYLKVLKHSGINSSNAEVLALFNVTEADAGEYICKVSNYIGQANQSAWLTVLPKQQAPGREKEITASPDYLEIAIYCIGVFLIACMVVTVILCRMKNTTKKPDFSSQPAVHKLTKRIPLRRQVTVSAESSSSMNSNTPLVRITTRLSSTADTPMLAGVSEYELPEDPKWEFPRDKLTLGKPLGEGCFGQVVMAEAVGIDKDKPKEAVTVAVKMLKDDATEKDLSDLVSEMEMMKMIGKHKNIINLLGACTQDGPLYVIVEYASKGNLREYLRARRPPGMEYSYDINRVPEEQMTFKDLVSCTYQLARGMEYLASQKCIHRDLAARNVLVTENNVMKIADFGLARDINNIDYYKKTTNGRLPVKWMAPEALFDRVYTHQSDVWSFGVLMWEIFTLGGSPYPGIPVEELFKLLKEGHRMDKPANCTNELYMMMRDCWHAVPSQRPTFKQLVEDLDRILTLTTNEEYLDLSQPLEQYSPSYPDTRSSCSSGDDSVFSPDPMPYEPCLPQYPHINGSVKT
T4 sequence (P21802 other isoform, or with tags, fused parts or gaps): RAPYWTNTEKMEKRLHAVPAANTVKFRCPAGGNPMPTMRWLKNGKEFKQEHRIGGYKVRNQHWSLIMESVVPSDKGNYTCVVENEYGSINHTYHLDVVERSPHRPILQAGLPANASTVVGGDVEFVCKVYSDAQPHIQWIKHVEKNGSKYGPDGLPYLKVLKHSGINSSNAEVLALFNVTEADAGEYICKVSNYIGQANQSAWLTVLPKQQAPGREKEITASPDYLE
T6 sequence (P21802 other isoform, or with tags, fused parts or gaps): as the sequence (P21802 other isoform, or with tags, fused parts or gaps S252W S252W) above, with W231S counted along it
T2 sequence (P21802 other isoform, or with tags, fused parts or gaps): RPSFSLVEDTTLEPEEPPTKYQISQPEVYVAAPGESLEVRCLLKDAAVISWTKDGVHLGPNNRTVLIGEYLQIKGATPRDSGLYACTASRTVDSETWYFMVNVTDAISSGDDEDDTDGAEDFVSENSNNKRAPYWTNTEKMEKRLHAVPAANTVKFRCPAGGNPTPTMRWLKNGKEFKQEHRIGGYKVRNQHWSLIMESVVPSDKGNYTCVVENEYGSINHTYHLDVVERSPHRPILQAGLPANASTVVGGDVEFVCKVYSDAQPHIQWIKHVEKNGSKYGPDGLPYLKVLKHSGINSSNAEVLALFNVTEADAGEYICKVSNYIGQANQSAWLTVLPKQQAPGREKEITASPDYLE
T5 sequence (P21802 22-821): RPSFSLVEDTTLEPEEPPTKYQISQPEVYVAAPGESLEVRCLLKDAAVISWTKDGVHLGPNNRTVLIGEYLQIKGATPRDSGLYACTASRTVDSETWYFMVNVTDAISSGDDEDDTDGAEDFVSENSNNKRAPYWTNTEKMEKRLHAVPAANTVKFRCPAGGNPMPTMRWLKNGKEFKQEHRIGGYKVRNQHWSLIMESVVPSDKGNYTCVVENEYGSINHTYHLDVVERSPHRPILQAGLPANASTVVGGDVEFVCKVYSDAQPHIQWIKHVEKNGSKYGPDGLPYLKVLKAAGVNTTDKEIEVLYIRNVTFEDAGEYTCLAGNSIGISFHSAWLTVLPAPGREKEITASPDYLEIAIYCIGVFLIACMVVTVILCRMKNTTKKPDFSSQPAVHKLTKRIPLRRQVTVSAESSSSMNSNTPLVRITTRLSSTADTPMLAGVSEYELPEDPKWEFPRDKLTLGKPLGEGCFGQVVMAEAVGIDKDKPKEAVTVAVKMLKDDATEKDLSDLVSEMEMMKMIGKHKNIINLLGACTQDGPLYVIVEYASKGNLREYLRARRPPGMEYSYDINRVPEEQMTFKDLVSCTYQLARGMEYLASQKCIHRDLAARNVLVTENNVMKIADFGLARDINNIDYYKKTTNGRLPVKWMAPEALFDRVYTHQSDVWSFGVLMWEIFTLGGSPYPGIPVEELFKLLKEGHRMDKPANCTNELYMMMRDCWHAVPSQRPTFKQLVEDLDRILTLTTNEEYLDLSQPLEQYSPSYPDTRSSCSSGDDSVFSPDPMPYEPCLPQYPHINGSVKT

binding result [1] | binding result [2] | binding result [3] | binding result [4] | binding result [5] | binding result [6] | Ka [7] | Binder
binds | binds | binds | binds | binds | binds |  | GAL-FR22 (antibody, V domains shown, Mouse monoclonal antibody from a hybridoma; also called GAL-FG22; ATCC PTA-9587) VH: QVQLKQSGPGLVQPSQSLSITCTVSGFSLTSFGVHWVRQSPGKGLEWLGVIWSGGSTDYNADFRSRLSISKDNSKSQIFFKMNSLQPDDTAIYYCANFYYGYDDYVMDYWGQGTSVTVSS VL: DIQMTQSPSSLSASLGGRVTITCKASQDIKNYIAWYQHKPGKSPRLLIHYTSTLQPGVPSRFSGSGSGRDYSFSISNLEPEDIATYYCLQYDDLYMFGGGTKLDIK
binds | binds | binds | binds | no binding (tested: 1 µg/50 µl) | binds |  | GAL-FR21 (antibody, V domains shown, Mouse monoclonal antibody from a hybridoma; also called mouse GAL-FR21; ATCC PTA-9586) VH: QVQLQQPGAEVVKPGASVKMSCKASGYIFTTYNVHWVKQTPGQGLEWIGSIYPDNGDTSYNQNFKGKATLTADKSSSTAYIQLSSLTSEDSAVYYCARGDFAYWGQGTLVTVSV VL: NIVMTQSPKSMSMSVGDRVSITCKASQGVSNDVAWYQKKPGQSPKLLIYSASYRYTGVPDRFTGSGSGTDFTFTISNVQAEDLAVYYCQQHSTTPYTFGGGTKLEIK
 |  |  |  |  |  | ≥ 1e+09 M⁻¹ | HuGAL-FR21 (antibody, human IgG1, kappa, V domains shown, Humanized IgG1, kappa; also called humanized GAL-FR21) VH: QVQLVQSGAEVKKPGSSVKVSCKASGYIFTTYNVHWVRQAPGQGLEWIGSIYPDNGDTSYNQNFKGRATITADKSTSTAYMELSSLRSEDTAVYYCARGDFAYWGQGTLVTVSS VL: DIQMTQSPSSLSASVGDRVTITCKASQGVSNDVAWYQQKPGKAPKLLIYSASYRYTGVPSRFSGSGSGTDFTFTISSLQPEDIATYYCQQHSTTPYTFGQGTKLEIKR
